Measured values taken from patent US20250277022A1 (STAIDSON BEIJING BIOPHARMACEUTICALS, published 2025).
Like-named read-outs stand apart in the source and are kept apart here. Blank lines part the entries; values can stand above or below the binder they belong to.

Assays:
human TSLP [1] = molecular target: T1, human TSLP (human, UniProt Q969D9 29-159); test: cell-based or functional assay
human TSLP [2] = molecular target: T1, human TSLP; test: cell-based or functional assay; remark: listed apart in the source
human TSLP [3] = molecular target: T1, human TSLP; test: ELISA, plate coated with human TSLP, test antibodies as human IgG1
Procedure: (§1) ELISA Screening: Monoclonal scFv antibodies were selected and subjected to ligand binding assays. The first assay was designed to identify scFv antibodies that bound human TSLP and/or cynomolgus TSLP. Briefly, a 96-well plate was coated with human TSLP or cynomolgus TSLP in PBS at 0.1 μg/well and left overnight at 4° C. Before loading the scFv antibodies, the plates were washed with TBST, blocked for 1-2 hours at 37° C. using 5% milk and washed again with TBST. Each scFv sample was first diluted to 40 μg/mL, and 150 μL was added to the first row of wells. The 40 μg/mL scFv samples were then serially diluted at a 1:3 ratio and added to the remaining wells. After incubating for an hour at 37° C., followed by washing with TBST for 6 times, 100 μl of the secondary antibody (HRP labeled mouse anti-flag (1:2500)) was added to each well. After incubation for an hour under 37° C., the plate was washed for 3 times using TBST. TMB was then added at 100 μL/well and incubated for 10-20 minutes at 37° C. 2 M H₂SO₄ was used to stop the reaction. The ELISA results (OD405) were then analyzed and the binding curves were generated by PRISM.

human IL-7 = molecular target: T2, human IL-7 (human, UniProt P13232 26-177); test: ELISA on human IL-7
T2 construct: also called TSLP homologous protein IL-7
T2 sequence (looked up): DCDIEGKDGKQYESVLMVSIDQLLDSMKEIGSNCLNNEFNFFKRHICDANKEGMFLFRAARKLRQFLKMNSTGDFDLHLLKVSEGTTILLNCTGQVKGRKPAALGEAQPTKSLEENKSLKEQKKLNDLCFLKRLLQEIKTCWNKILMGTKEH

cynomolgus monkey TSLP [4] = molecular target: T3, cynomolgus monkey TSLP (cynomolgus monkey, UniProt A0A7N9CAT7 29-159); test: ELISA, plate coated with cynomolgus monkey TSLP, test antibodies as human IgG1
T3 construct: also called cynomolgus TSLP; recombinant cynomolgus monkey TSLP
Procedure: as §1

TSLP-His = molecular target: T4, TSLP-His (human, UniProt Q969D9 29-159, limits assumed); test: HTRF competition: blocking of TSLP-his binding to HEK293-Flag-hTSLPR-IL7Ra cells, IgG1
T4 construct: also called his-tagged TSLP; not shown: His-tag

human TSLP [5] = molecular target: T1, human TSLP; test: ELISA, plate coated with human TSLP, test antibodies as human IgG1; remark: listed apart in the source
Procedure: as §1

human TSLP [6] = molecular target: T1, human TSLP; test: cell-based or functional assay; remark: listed apart in the source
cynomolgus monkey TSLP [7] = molecular target: T3, cynomolgus monkey TSLP; test: ELISA, plate coated with cynomolgus monkey TSLP, test antibodies as human IgG1; remark: listed apart in the source
Procedure: as §1

human TSLP [8] = molecular target: T1, human TSLP; test: solution equilibrium titration, MSD electrochemiluminescence, IgG1
Procedure: Briefly, according to the manufacturer's instructions, the streptavidin MSD plates were blocked 30 mins at RT with PBS with 3% BSA (assay buffer). Serially diluted human TSLP with the concentration from 0 to 50 nM was equilibrated with the tested antibodies with the concentration of 10 pM overnight at RT, wells without antigen were used to determine Bmax values; wells containing only assay buffer were used to determine background. 50 μL of biotinylated human TSLP was coated at 0.2 μg/mL in assay buffer for 30 mins at RT on streptavidin MSD plates. After washing with PBST for 3 times, 50 μL of the equilibrated samples were transferred to those plates and incubated for 30 mins at RT. […] After washing the MSD Plate with PBST for 3 times, 150 μL of MSD read buffer was added to each well, electrochemiluminescence signals of the plate was detected using a Sector Imager 6000 (Meso Scale Discovery, Gaithersburg, MD, USA).

human TSLP [9] = molecular target: T1, human TSLP; test: cell-based or functional assay; remark: listed apart in the source
cynomolgus monkey TSLP [10] = molecular target: T3, cynomolgus monkey TSLP; test: solution equilibrium titration, MSD electrochemiluminescence, IgG1
cynomolgus monkey TSLP [11] = molecular target: T3, cynomolgus monkey TSLP; test: ELISA, plate coated with cynomolgus monkey TSLP, test antibodies as human IgG1; remark: listed apart in the source
Procedure: as §1

human TSLP [12] = molecular target: T1, human TSLP; test: cell-based or functional assay; remark: listed apart in the source
human TSLP [13] = molecular target: T1, human TSLP; test: ELISA, plate coated with human TSLP, test antibodies as human IgG1; remark: listed apart in the source
Procedure: as §1

[14] = molecular target: E. coli derived human TSLP (human, UniProt Q969D9 29-159, limits assumed); test: cell-based or functional assay
cynomolgus monkey TSLP [15] = molecular target: T3, cynomolgus monkey TSLP; test: ELISA, plate coated with cynomolgus monkey TSLP, test antibodies as human IgG1; remark: listed apart in the source
Procedure: as §1

human TSLP [16] = molecular target: T1, human TSLP; test: ELISA, plate coated with human TSLP, test antibodies as human IgG1; remark: listed apart in the source
Procedure: as §1

human TSLP [17] = molecular target: T1, human TSLP; test: as above; remark: listed apart in the source
Procedure: as §1

cynomolgus monkey TSLP [18] = molecular target: T3, cynomolgus monkey TSLP; test: ELISA, plate coated with cynomolgus monkey TSLP, test antibodies as human IgG1; remark: listed apart in the source
Procedure: as §1

T3 sequence (A0A7N9CAT7 entry or part of it): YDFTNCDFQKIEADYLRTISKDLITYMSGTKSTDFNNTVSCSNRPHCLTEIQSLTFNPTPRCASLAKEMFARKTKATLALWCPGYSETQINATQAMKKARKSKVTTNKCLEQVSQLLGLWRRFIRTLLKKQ

B1: TSLP-02 (antibody, V domains shown)
VH: QVQLVQSGAEVKKPGSSVKVSCKASGFTFGSYGINWVRQAPGQGLEWLGVIVPLVGVTIYAEKFQGRVTITADTSTSTAYMELSSLRSEDTAVYYCARGQEYFYWYFDLWGQGTLVTVSS
VL: QSALTQPPSASGSPGQSVTISCSGSSSDIGGYNRVSWYQQHPGKAPKLMIYDVSKRPSGVPDRFSGSKSGNTASLTVSGLQAEDEADYYCSSYAGTDTFILFGGGTKLTVL
notes: also called parent antibody TSLP-02
IC50, inhibition of TSLP induced proliferation of Ba/F3-TSLPR-IL7Ra cells (CellTiter-Glo) (human TSLP [1]): 0.0175 mg/L
IC50, inhibition of human TSLP-induced Stat5 activation (Stat5-luciferase reporter, Ba/F3 cells with hTSLPR and hIL7Ra) (human TSLP [2]): 0.00667 mg/L
EC50 (read off the curve) (human TSLP [3]): ~0.09 mg/L
binding result (human IL-7): no binding
EC50 (read off the curve) (cynomolgus monkey TSLP [4]): ~0.7 mg/L
IC50 (TSLP-His): 0.229 mg/L

B5: TSLP-0103 (antibody, V domains shown)
VH: QVQLQESGPGLVKPSETLSLTCTVSGYSISSGYGWSWIRQPPGKGLEWIGYISYYGSISYNPSLKSRVTISRDTSKNQFSLKLSSVTAADTAVYYCARTNLLYFDSWGQGTLVTVSS
VL: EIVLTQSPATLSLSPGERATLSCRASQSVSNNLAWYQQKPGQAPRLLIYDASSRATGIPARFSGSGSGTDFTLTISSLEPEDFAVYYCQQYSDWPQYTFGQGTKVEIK
EC50 (read off the curve) (cynomolgus monkey TSLP [11]): ~0.7 mg/L
IC50, inhibition of human TSLP-induced Stat5 activation (Stat5-luciferase reporter, Ba/F3 cells with hTSLPR and hIL7Ra) (human TSLP [12]): 0.0129 mg/L
binding result (human IL-7): no binding
EC50 (read off the curve) (human TSLP [13]): ~0.04 mg/L
IC50 (TSLP-His): 0.379 mg/L

B6: TSLP-0107 (antibody, V domains shown)
VH: QVQLQESGPGLVKPSETLSLTCTVSGYSISSGYGWSWIRQPPGKGLEWIGYISYYGSISYNPSLKSRVTISVDTSKNQFSLKLSSVTAADTAVYYCARTNLLYFDSWGQGTLVTVSS
VL: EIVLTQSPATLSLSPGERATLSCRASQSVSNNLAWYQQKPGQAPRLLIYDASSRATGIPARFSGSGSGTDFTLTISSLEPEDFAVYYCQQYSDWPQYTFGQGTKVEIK
notes: also called TSLP-0107-IgG1
IC50, inhibition of TSLP induced proliferation of Ba/F3-TSLPR-IL7Ra cells (CellTiter-Glo) (human TSLP [1]): 0.0136 mg/L
EC50 (read off the curve) (cynomolgus monkey TSLP [11]): ~0.7 mg/L
IC50, inhibition of human TSLP-induced Stat5 activation (Stat5-luciferase reporter, Ba/F3 cells with hTSLPR and hIL7Ra) (human TSLP [12]): 0.00884 mg/L
IC50, inhibition of E. coli derived human TSLP induced Stat5 activation [14]: 0.00259 mg/L
binding result (human IL-7): no binding
Kd (human TSLP [8]): 0.044 nM
IC50, inhibition of human TSLP induced TARC release from human PBMCs (TARC ELISA) (human TSLP [9]): 0.000758 mg/L
EC50 (read off the curve) (human TSLP [13]): ~0.04 mg/L
Kd (cynomolgus monkey TSLP [10]): 0.0254 nM
IC50 (TSLP-His): 0.116 mg/L

B7: TSLP-0301 (antibody, V domains shown)
VH: EVQLVESGGGLVQPGGSLRLSCAASGFTFSNYDMTWVRQAPGKGLEWVSSITFASSYIYYADSVKGRFTISRDNAKNSLSLQMNSLRAEDTAVYYCTRGGGAYYGGSLDVWGQGVLVTVSS
VL: DIVMTQTPLSLSVTPGEPASISCRSSQSLLHSNEYTYLHWYLQKPGQSPQLLIYLVSHRASGVPDRFSGSGSDTDFTLKISRVEAEDVGVYYCEQTLQTPFTFGGGTKVEIK
IC50, inhibition of TSLP induced proliferation of Ba/F3-TSLPR-IL7Ra cells (CellTiter-Glo) (human TSLP [1]): 0.217 mg/L
EC50 (read off the curve) (cynomolgus monkey TSLP [15]): ~2 mg/L
IC50, inhibition of human TSLP-induced Stat5 activation (Stat5-luciferase reporter, Ba/F3 cells with hTSLPR and hIL7Ra) (human TSLP [6]): 0.0417 mg/L

B8: TSLP-03 (antibody, V domains shown)
VH: EVQLVESGGGLVQPGGSLRLSCAASGFTFSNYDMTWVRQAPGKGLEWVSSITFASSYIYYADSVKGRFTISRDNAKNSLSLQMNSLRAEDTAVYYCTRGGGAYHGGSLDVWGQGVLVTVSS
VL: DIVMTQTPLSLSVTPGEPASISCRSSQSLLHINGYTYLHWYLQKPGQSPQLLIYLVSHRASGVPDRFSGSGSDTDFTLKISRVEAEDVGVYYCEQTLQTPYSFGGGTKVEIK
notes: also called parent antibody TSLP-03
EC50 (read off the curve) (human TSLP [16]): ~0.08 mg/L
IC50, inhibition of TSLP induced proliferation of Ba/F3-TSLPR-IL7Ra cells (CellTiter-Glo) (human TSLP [1]): 0.198 mg/L
EC50 (read off the curve) (cynomolgus monkey TSLP [15]): ~0.9 mg/L
IC50, inhibition of human TSLP-induced Stat5 activation (Stat5-luciferase reporter, Ba/F3 cells with hTSLPR and hIL7Ra) (human TSLP [6]): 0.0367 mg/L
IC50 (TSLP-His): 0.494 mg/L

B10: TSLP-04 (antibody, V domains shown)
V domain 1: QEQLVQSGDEVKKPGASVKVSCKSSGFTFGSYAISWVRQAPGQGLEWMGMLVPLLGVTNYAEKFQGRVTITADPSTTTTSMELSSLRSEDTAVYYCARGGSNYLYWYFDLWGPGTPITVSS
V domain 2: QSAPIQPRSVSGSPGQSVTISCTGTSSDIGGYNRISWYQQHPGKAPKLMIYDVSKRPSGVSDRFSGSKSGNTASLTISGLQAEDEADYYCSSYAGTDTFVLFGGGTQLTIV
notes: also called parent antibody TSLP-04
IC50, inhibition of TSLP induced proliferation of Ba/F3-TSLPR-IL7Ra cells (CellTiter-Glo) (human TSLP [1]): 0.15 mg/L
EC50 (read off the curve) (human TSLP [17]): ~0.1 mg/L
IC50, inhibition of human TSLP-induced Stat5 activation (Stat5-luciferase reporter, Ba/F3 cells with hTSLPR and hIL7Ra) (human TSLP [6]): 0.0364 mg/L

Results, then the binder that gave them:

IC50, inhibition of TSLP induced proliferation of Ba/F3-TSLPR-IL7Ra cells (CellTiter-Glo) (human TSLP [1]): 0.0651 mg/L
EC50 (read off the curve) (human TSLP [5]): ~0.04 mg/L
IC50, inhibition of human TSLP-induced Stat5 activation (Stat5-luciferase reporter, Ba/F3 cells with hTSLPR and hIL7Ra) (human TSLP [6]): 0.0183 mg/L
EC50 (read off the curve) (cynomolgus monkey TSLP [7]): ~0.3 mg/L
B2: TSLP-0206 (antibody, V domains shown)
VH: QVQLVQSGAEVKKPGSSVKVSCKASGFTFGSYGISWVRQAPGQGLEWLGVIVPLVDVTIYAEKFQGRVTITADTSTSTAYMELSSLRSEDTAVYYCARGQEYFYWYFDLWGQGTLVTVSS
VL: QSALTQPPSASGSPGQSVTISCTGTISDIGGYNRVSWYQQHPGKAPKLMIYEVSKRPSGVPDRFSGSKSGNTASLTVSGLQAEDEADYYCSSYAGTDTFVFFGGGTKLTVL

IC50, inhibition of TSLP induced proliferation of Ba/F3-TSLPR-IL7Ra cells (CellTiter-Glo) (human TSLP [1]): 0.0131 mg/L
IC50, inhibition of human TSLP-induced Stat5 activation (Stat5-luciferase reporter, Ba/F3 cells with hTSLPR and hIL7Ra) (human TSLP [2]): 0.00257 mg/L
EC50 (read off the curve) (human TSLP [3]): ~0.08 mg/L
Kd (human TSLP [8]): 0.0211 nM
EC50 (read off the curve) (cynomolgus monkey TSLP [4]): ~0.7 mg/L
IC50, inhibition of human TSLP induced TARC release from human PBMCs (TARC ELISA) (human TSLP [9]): 0.000365 mg/L
Kd (cynomolgus monkey TSLP [10]): 0.00447 nM
IC50 (TSLP-His): 0.297 mg/L
B3: TSLP-0202 (antibody, V domains shown)
VH: QVQLVQSGAEVKKPGSSVKVSCKASGFTFGSYGINWVRQAPGQGLEWMGVIVPLVGVTIYAEKFQGRVTITADESTSTAYMELSSLRSEDTAVYYCARGQEYFYWYFDLWGQGTLVTVSS
VL: QSALTQPPSASGSPGQSVTISCSGSSSDIGGYNRVSWYQQHPGKAPKLMIYDVSKRPSGVPDRFSGSKSGNTASLTVSGLQAEDEADYYCSSYAGTDTFILFGGGTKLTVL
notes: also called TSLP-0202-IgG1

IC50, inhibition of TSLP induced proliferation of Ba/F3-TSLPR-IL7Ra cells (CellTiter-Glo) (human TSLP [1]): 0.284 mg/L
EC50 (read off the curve) (human TSLP [5]): ~0.04 mg/L
IC50, inhibition of human TSLP-induced Stat5 activation (Stat5-luciferase reporter, Ba/F3 cells with hTSLPR and hIL7Ra) (human TSLP [6]): 0.0421 mg/L
EC50 (read off the curve) (cynomolgus monkey TSLP [7]): ~0.3 mg/L
B4: TSLP-0205 (antibody, V domains shown)
VH: QVQLVQSGAEVKKPGSSVKVSCKASGFTFGSYGINWVRQAPGQGLEWLGVIVPLVGVTIYAEKFQGRVTITADTSTSTAYMELSSLRSEDTAVYYCARGQEYFYWYFDLWGQGTLVTVSS
VL: QSALTQPPSASGSPGQSVTISCTGTTSDIGGYNRVSWYQQHPGKAPKLMIYEVSKRPSGVPDRFSGSKSGNTASLTVSGLQAEDEADYYCSSYAGTDTFAIFGGGTKLTVL

EC50 (read off the curve) (human TSLP [16]): ~0.06 mg/L
B9: TSLP-0302 (antibody, V domains shown)
VH: EVQLVESGGGLVQPGGSLRLSCAASGFTFSNYGMTWVRQAPGKGLEWVSSITFASSYIYYADSVKGRFTISRDNAKNSLSLQMNSLRAEDTAVYYCTRGGGAYYGGSLDVWGQGVLVTVSS
VL: DIVMTQTPLSLSVTPGEPASISCRSSQSLLHSYGYTYLHWYLQKPGQSPQLLIYLVSYRASGVPDRFSGSGSDTDFTLKISRVEAEDVGVYYCEQTLQTPYTFGGGTKVEIK

IC50, inhibition of TSLP induced proliferation of Ba/F3-TSLPR-IL7Ra cells (CellTiter-Glo) (human TSLP [1]): 0.0195 mg/L
EC50 (read off the curve) (human TSLP [17]): ~0.1 mg/L
EC50 (read off the curve) (cynomolgus monkey TSLP [18]): ~2 mg/L
IC50, inhibition of human TSLP-induced Stat5 activation (Stat5-luciferase reporter, Ba/F3 cells with hTSLPR and hIL7Ra) (human TSLP [6]): 0.0195 mg/L
IC50 (TSLP-His): 0.333 mg/L
B11: TSLP-0401 (antibody, V domains shown)
V domain 1: QEQLVQSGDEVKKPGASVKVSCKSSGFTFGSYAISWVRQAPGQGLEWMGMIIPLLGVTDYAEKFQGRVTITADPSTTTTSMELSSLRSEDTAVYYCARGGTNYLYWYFDLWGPGTPITVSS
V domain 2: QSAPIQPRSVSGSPGQSVTISCTGTSSDIGGYNRVSWYQQHPGKAPKLMIYEVSKRPSGVSDRFSGSKSGNTASLTISGLQAEDEADYYCSAYAGTDTFVLFGGGTQLTIV
